Legend:
[5F]PR–R1 [1] = biological target: T1, [5F]PR–R1 (Staphylococcus aureus Newman D2 Tager …, 5-fluorescein (5-IAF) on the engineered C-terminal Cys); assay: other fluorescence titration; fluorescein-labeled construct at fixed concentration titrated with frag D; fluorescence intensity; 25 °C; 50 mM Hepes, 110 mM NaCl, 5 mM CaCl2, 1 mg/ml PEG-8000, pH 7.4, 10 μM FPR-CK; quadratic fit; n fixed to 1 for the Ala constructs and MP; details: both partners purified
T1 construct: the 10 SC residues preceding PR (1-10 of the construct numbering); staphylocoagulase, first 11 residues of the 32-residue pseudorepeat PR (11-21 of the construct numbering); last 21 residues of PR (22-42 of the construct numbering); staphylocoagulase repeat R1, 27 residues; engineered C-terminal Cys for labeling; not shown: His6, N-terminal, cleaved

[5F]PR–R1 [2] = biological target: T1, [5F]PR–R1; assay: other fluorescence titration; as the intensity titration in Hepes pH 7.4, with saturating GPRP (4.9 mM in the methods, 5 mM in the results); n fixed to 1; details: both partners purified

B1: fibrinogen fragment D (domain or fragment)
chain 1: VSEDLRSRIEVLKRKVIEKVQHIQLLQKNVRAQLVDMKRLEVDIDIKIRSCRGSCSRALAREVDLKDYEDQQKQLEQVIAKDLLPSR
chain 2: DNENVVNEYSSELEKHQLYIDETVNSNIPTNLRVLRSILENLRSKIQKLESDVSAQMEYCRTPCTVSCNIPVVSGKECEEIIRKGGETSEMYLIQPDSSVKPYRVYCDMNTENGGWTVIQNRQDGSVDFGRKWDPYKQGFGNVATNTDGKNYCGLPGEYWLGNDKISQLTRMGPTELLIEMEDWKGDKVKAHYGGFTVQNEANKYQISVNKYRGTAGNALMDGASQLMGENRTMTIHNGMFFSTYDRDNDGWLTSDPRKQCSKEDGGGWWYNRCHAANPNGRYYWGGQYTWDMAKHGTDDGVVWMNWKGSWYSMRKMSMKIRPFFPQQ
chain 3: KMLEEIMKYEASILTHDSSIRYLQEIYNSNNQKIVNLKEKVAQLEAQCQEPCKDTVQIHDITGKDCQDIANKGAKQSGLYFIKPLKANQQFLVYCEIDGSGNGWTVFQKRLDGSVDFKKNWIQYKEGFGHLSPTGTTEFWLGNEKIHLISTQSAIPYALRVELEDWNGRTSTADYAMFKVGPEADKYRLTYAYFAGGDAGDAFDGFDFGDDPSDKFFTSHNGMQFSTWDNDNDKFEGNCAEQDGSGWWMNKCHAGHLNGVYYQGGTYSKASTPNGYDNGIIWATWKTRWYSMKKTTMKIIPFNRLTIGEGQQHHLGGAK
**Q.** Which Kd ([5F]PR–R1 [1]) does the source give for B1 here?
**A.** 49 nM

**Q.** What about the Kd ([5F]PR–R1 [2]) of the same binder?
**A.** 18 nM
